Data reported in patent publication US20200216522A1 (DENALI THERAPEUTICS, published 2020).
Substitutions are numbered along the chain they refer to. Names may count otherwise.

B1: hu1C7.v2 (S49A) (antibody, V domains shown)
VH: EVQLLESGGGLVQPGGSLRLSCAASGFTFSSYGMSWVRQAPGKGLEWVASISGDGGSYIHYADSVKGRFTISRDNSKNTLYLQMNSLRAEDTAVYYCARLPYWGQGTLVTVSS
VL: DIVMTQSPDSLAVSLGERATINCKSSQSLLNSGNQKNYLTWYQQKPGQPPKLLIYWASTRESGVPDRFSGSGSGTDFTLTISSLQAEDVAVYYCQQYNSYPLTFGQGTKVEIKR
B2: Clone with L1_3 (antibody, V domains shown)
VH: B1 VH
VL: DIVMTQSPDSLAVSLGERATINCKSSQSLHRSGTQKDYLVWYQQKPGQPPKLLIYWASTRESGVPDRFSGSGSGTDFTLTISSLQAEDVAVYYCQQYNSYPLTFGQGTKVEIK
notes: IgG based on hu1C7.v2
B3: Clone with H1_1 (antibody, V domains shown)
VH: B1 VH with T28K, S31R, Y32V, M34V
VL: B1 VL
B4: Clone with L1_3 and H1_4 (antibody, V domains shown)
VH: B1 VH with T28R, S31G, Y32P
VL: B2 VL
notes: IgG based on hu1C7.v2
B5: Clone with H3_1 (antibody, V domains shown)
VH: B1 VH with R99K, Y102F
VL: B1 VL
B6: Clone with L1_3 and H1_1 (antibody, V domains shown)
VH: B1 VH with T28K, S31R, Y32V, M34V
VL: B2 VL
notes: IgG based on hu1C7.v2
B7: Clone with H1_4 (antibody, V domains shown)
VH: B1 VH with T28R, S31G, Y32P
VL: B1 VL
notes: IgG based on hu1C7.v2
B8: Clone with L1_1 (antibody, V domains shown)
VH: B1 VH
VL: B1 VL with Q27H, L30Y, N31S, G33R, N34R, Q35H, N37H, T40A
B9: Clone with L1_3 and H3_1 (antibody, V domains shown)
VH: B1 VH with R99K, Y102F
VL: B2 VL
notes: IgG based on hu1C7.v2
B10: Clone with H1_5 (antibody, V domains shown)
VH: B1 VH with G26V, F27I, T28K, F29W, S30R, S31I
VL: B1 VL
B11: Clone with H1_2 (antibody, V domains shown)
VH: B1 VH with S31R, Y32V, M34T
VL: B1 VL
notes: IgG based on hu1C7.v2
B12: Clone with L1_3-10 (antibody, V domains shown)
VH: B1 VH
VL: B2 VL with D37N
notes: based on hu1C7.v2
B13: Clone with L1_3-11 (antibody, V domains shown)
VH: B1 VH
VL: B2 VL with V40A
notes: based on hu1C7.v2
B14: anti-Tau antibody 1C7/3C.35.21 (antibody, human IgG1, kappa, L234A L235A)
heavy 1: EVKLVESGGGLVKPGGSLKLSCAASGFTFSSYGMSWVRQTPEKRLEWVASISGDGGSYIHYADSVKGRFTISRDSAKNTLYLQMSSLRSEDTALYYCARLPYWGQGTLVTVSAASTKGPSVFPLAPSSKSTSGGTAALGCLVKDYFPEPVTVSWNSGALTSGVHTFPAVLQSSGLYSLSSVVTVPSSSLGTQTYICNVNHKPSNTKVDKKVEPKSCDKTHTCPPCPAPEAAGGPSVFLFPPKPKDTLMISRTPEVTCVVVDVSHEDPEVKFNWYVDGVEVHNAKTKPREEQYNSTYRVVSVLTVLHQDWLNGKEYKCKVSNKALGAPIEKTISKAKGQPREPQVYTLPPSRDELTKNQVSLWCLVKGFYPSDIAVWWESYGTEWSSYKTTPPVLDSDGSFFLYSKLTVTKEEWQQGFVFSCSVMHEALHNHYTQKSLSLSPGK
heavy 2: EVKLVESGGGLVKPGGSLKLSCAASGFTFSSYGMSWVRQTPEKRLEWVASISGDGGSYIHYADSVKGRFTISRDSAKNTLYLQMSSLRSEDTALYYCARLPYWGQGTLVTVSAASTKGPSVFPLAPSSKSTSGGTAALGCLVKDYFPEPVTVSWNSGALTSGVHTFPAVLQSSGLYSLSSVVTVPSSSLGTQTYICNVNHKPSNTKVDKKVEPKSCDKTHTCPPCPAPEAAGGPSVFLFPPKPKDTLMISRTPEVTCVVVDVSHEDPEVKFNWYVDGVEVHNAKTKPREEQYNSTYRVVSVLTVLHQDWLNGKEYKCKVSNKALGAPIEKTISKAKGQPREPQVYTLPPSRDELTKNQVSLSCAVKGFYPSDIAVEWESNGQPENNYKTTPPVLDSDGSFFLVSKLTVDKSRWQQGNVFSCSVMHEALHNHYTQKSLSLSPGK
light: DIVMTQSPSSLTVTAGEKVTMSCKSSQSLLNSGNQKNYLTWYQQKPGQPPKLLIYWASTRESGVPDRFTGSGSGTDFTLTISNVQSEDLAEYFCQQYNSYPLTFGAGTKLELKRTVAAPSVFIFPPSDEQLKSGTASVVCLLNNFYPREAKVQWKVDNALQSGNSQESVTEQDSKDSTYSLSSTLTLSKADYEKHKVYACEVTHQGLSSPVTKSFNRGEC
notes: two 1C7 Fab arms; LALAPG; also called Tau^1C7/3C.35.21
B15: hu1C7.v1 (antibody, V domains shown)
VH: B1 VH with A49S
VL: B1 VL
B16: hu1C7.v3 (S75A) (antibody, V domains shown)
VH: B1 VH with A49S, S76A
VL: B1 VL
B17: hu1C7.v4 (S49A, S75A) (antibody, V domains shown)
VH: B1 VH with S76A
VL: B1 VL

Molecular target: T1, full-length human Tau (Tau441; 2N4R), recombinant (human, UniProt P10636 1-758)
T1 construct: made in E. coli, His6-Smt3 tag removed; biotinylated through amines for Octet and phage work; also called r-Tau; recombinant Tau
Assay: SPR Biacore

T1 sequence (P10636 other isoform, or with tags, fused parts or gaps limits assumed): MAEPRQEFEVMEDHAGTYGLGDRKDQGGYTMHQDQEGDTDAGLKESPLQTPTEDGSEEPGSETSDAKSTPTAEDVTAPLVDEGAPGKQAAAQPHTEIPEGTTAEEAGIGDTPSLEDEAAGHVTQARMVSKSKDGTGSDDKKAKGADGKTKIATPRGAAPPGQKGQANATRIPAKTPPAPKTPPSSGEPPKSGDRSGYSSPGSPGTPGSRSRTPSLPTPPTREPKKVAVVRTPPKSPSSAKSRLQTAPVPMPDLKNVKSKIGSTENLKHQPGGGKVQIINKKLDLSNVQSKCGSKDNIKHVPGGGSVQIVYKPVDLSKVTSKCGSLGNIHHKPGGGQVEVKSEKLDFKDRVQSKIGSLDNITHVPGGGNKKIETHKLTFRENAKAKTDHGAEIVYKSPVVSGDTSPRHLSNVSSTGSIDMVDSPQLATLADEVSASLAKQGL

Row | Kd [nM] | koff [s⁻¹] | kon [M⁻¹ s⁻¹] | Binder
1 | 1.5 | 0.0011 | 760000 | B1
2 | 0.133 | 0.000286 | 2.15e+06 | B2
3 | 0.122 | 0.000252 | 2.07e+06 | B3
4 | 0.038 | 8.72e-05 | 2.28e+06 | B4
5 | 0.242 | 0.000478 | 1.97e+06 | B5
6 | 0.069 | 0.000113 | 1.64e+06 | B6
7 | 0.174 | 0.00023 | 1.32e+06 | B7
8 | 0.192 | 0.000297 | 1.54e+06 | B8
9 | 0.062 | 0.000145 | 2.36e+06 | B9
10 | 0.183 | 0.000244 | 1.34e+06 | B10
11 | 0.092 | 0.000144 | 1.56e+06 | B11

Molecular target: T1, full-length human Tau (Tau441; 2N4R), …
Assay: SPR Biacore
Remark: another data set of the same source
Protocol: (§1) IgG was purified with protein A affinity chromatography. The affinity of each hulC7 IgG variant for r-Tau was determined by surface plasmon resonance using a Biacore™ T200 instrument. Biacore™ Series S CM5 sensor chips were immobilized with monoclonal mouse anti-human IgG (Fc) antibody (Human antibody capture kit from GE Healthcare). Serial 3-fold dilutions of each hulC7 variant were injected at a flow rate of […]. Each sample was analyzed with 3-minute association and 10-minute dissociation. After each injection, the chip was regenerated using 3 M MgCl₂. Binding response was corrected by subtracting the RU from a flow cell capturing an irrelevant IgG at similar density. A 1:1 Languir model of simultaneous fitting of kₒₙ and koff was used for kinetics analysis.
A further round of affinity maturation was performed by mutating certain amino acids in selected CDR-H1, CDR-L1, and CDR-L3 sequences from Table 9A, as well as the sequence of CDR-H2 (SEQ ID NO:23) of hulC7.v2. Sequence changes were identified in each CDR (Table 9B). Binding affinities were evaluated using Biacore™ (Table 10B).

Row | Kd [nM] | koff [s⁻¹] | kon [M⁻¹ s⁻¹] | Binder
12 | 1.45 | 0.000851 | 585000 | B1
13 | 0.109 | 0.000133 | 1.22e+06 | B2
14 | 0.333 | 0.000188 | 564000 | B7
15 | 0.157 | 0.000147 | 937000 | B12
16 | 0.478 | 0.000132 | 276000 | B11
17 | 0.231 | 0.000223 | 965000 | B13

Molecular target: T1, full-length human Tau (Tau441; 2N4R), …
Assay: SPR Biacore
Remark: another data set of the same source

Row | Kd [nM] | fold weaker binding than chimeric 1C7 [fold] | Binder
18 | 0.4 | – | B14
19 | ~1.6 | ~2 | B1
20 | ~1.6 | ~2 | B15
21 | ~1.6 | ~2 | B16
22 | ~1.6 | ~2 | B17

Molecular target: T1, full-length human Tau (Tau441; 2N4R), …
Assay: SPR Biacore
Remark: another data set of the same source
Protocol: as §1

Row | Kd [nM] | koff [s⁻¹] | kon [M⁻¹ s⁻¹] | Binder
23 | 1.5 | 0.0011 | 760000 | B1
24 | 1.7 | 0.0012 | 730000 | B16
25 | 1.8 | 0.0011 | 660000 | B17
